# Laboratory results reported in paper PMC11322666 (2024).
# B1: UPF3B^WT, Flag tagged [human] / UPF2, endogenous [human (endogenous in HEK293T)] (parent complex)
# chain 1: MKEEKEHRPKEKRVTLLTPAGATGSGGGTSGDSSKGEDKQDRNKEKKEALSKVVIRRLPPTLTKEQLQEHLQPMPEHDYFEFFSNDTSLYPHMYARAYINFKNQEDIILFRDRFDGYVFLDNKGQEYPAIVEFAPFQKAAKKKTKKRDTKVGTIDDDPEYRKFLESYATDNEKMTSTPETLLEEIEAKNRELIAKKTTPLLSFLKNKQRMREEKREERRRREIERKRQREEERRKWKEEEKRKRKDIEKLKKIDRIPERDKLKDEPKIKVHRFLLQAVNQKNLLKKPEKGDEKELDKREKAKKLDKENLSDERASGQSCTLPKRSDSELKDEKPKRPEDESGRDYREREREYERDQERILRERERLKRQEEERRRQKERYEKEKTFKRKEEEMKKEKDTLRDKGKKAESTESIGSSEKTEKKEEVVKRDRIRNKDRPAMQLYQPGARSRNRLCPPDDSTKSGDSAAERKQESGISHRKEGGEE
# chain 2: MPAERKKPASMEEKDSLPNNKEKDCSERRTVSSKERPKDDIKLTAKKEVSKAPEDKKKRLEDDKRKKEDKERKKKDEEKVKAEEESKKKEEEEKKKHQEEERKKQEEQAKRQQEEEAAAQMKEKEESIQLHQEAWERHHLRKELRSKNQNAPDSRPEENFFSRLDSSLKKNTAFVKKLKTITEQQRDSLSHDFNGLNLSKYIAEAVASIVEAKLKISDVNCAVHLCSLFHQRYADFAPSLLQVWKKHFEARKEEKTPNITKLRTDLRFIAELTIVGIFTDKEGLSLIYEQLKNIINADRESHTHVSVVISFCRHCGDDIAGLVPRKVKSAAEKFNLSFPPSEIISPEKQQPFQNLLKEYFTSLTKHLKRDHRELQNTERQNRRILHSKGELSEDRHKQYEEFAMSYQKLLANSQSLADLLDENMPDLPQDKPTPEEHGPGIDIFTPGKPGEYDLEGGIWEDEDARNFYENLIDLKAFVPAILFKDNEKSCQNKESNKDDTKEAKESKENKEVSSPDDLELELENLEINDDTLELEGGDEAEDLTKKLLDEQEQEDEEASTGSHLKLIVDAFLQQLPNCVNRDLIDKAAMDFCMNMNTKANRKKLVRALFIVPRQRLDLLPFYARLVATLHPCMSDVAEDLCSMLRGDFRFHVRKKDQINIETKNKTVRFIGELTKFKMFTKNDTLHCLKMLLSDFSHHHIEMACTLLETCGRFLFRSPESHLRTSVLLEQMMRKKQAMHLDARYVTMVENAYYYCNPPPAEKTVKKKRPPLQEYVRKLLYKDLSKVTTEKVLRQMRKLPWQDQEVKDYVICCMINIWNVKYNSIHCVANLLAGLVLYQEDVGIHVVDGVLEDIRLGMEVNQPKFNQRRISSAKFLGELYNYRMVESAVIFRTLYSFTSFGVNPDGSPSSLDPPEHLFRIRLVCTILDTCGQYFDRGSSKRKLDCFLVYFQRYVWWKKSLEVWTKDHPFPIDIDYMISDTLELLRPKIKLCNSLEESIRQVQDLEREFLIKLGLVNDKDSKDSMTEGENLEEDEEEEEGGAETEEQSGNESEVNEPEEEEGSDNDDDEGEEEEEENTDYLTDSNKENETDEENTEVMIKGGGLKHVPCVEDEDFIQALDKMMLENLQQRSGESVKVHQLDVAIPLHLKSQLRKGPPLGGGEGEAESADTMPFVMLTRKGNKQQFKILNVPMSSQLAANHWNQQQAEQEERMRMKKLTLDINERQEQEDYQEMLQSLAQRPAPANTNRERRPRYQHPKGAPNADLIFKTGGRRR
# Variants of: B1
# Assay: co-immunoprecipitation (IP: Flag, blot UPF2), western blot band quantification; transfected for 24 h
row,ratio to parent,Variant
1,1.08,chain 1 MKEEKEHRPKEKRVTLLTPAGATGSGGGTSGDSSKGEDKQDRNKEKKEALSKVVIRRLPPTLTKEQLQEHLQPMPEHDYFEFFSNDTSLYPHMYARAYINFKNQEDIILFRDRFDGYVFLDNKGQEYPAIVEFAPFQKAAKKKTKKRDTKVGTIDDDPEFRKFLESYATDNEKMTSTPETLLEEIEAKNRELIAKKTTPLLSFLKNKQRMREEKREERRRREIERKRQREEERRKWKEEEKRKRKDIEKLKKIDRIPERDKLKDEPKIKVHRFLLQAVNQKNLLKKPEKGDEKELDKREKAKKLDKENLSDERASGQSCTLPKRSDSELKDEKPKRPEDESGRDYREREREYERDQERILRERERLKRQEEERRRQKERYEKEKTFKRKEEEMKKEKDTLRDKGKKAESTESIGSSEKTEKKEEVVKRDRIRNKDRPAMQLYQPGARSRNRLCPPDDSTKSGDSAAERKQESGISHRKEGGEE [chain 1 Y160F]
2,0.21,chain 1 MKEEKEHRPKEKRVTLLTPAGATGSGGGTSGDSSKGEDKQDRNKEKKEALSKVVIRRLPPTLTKEQLQEHLQPMPEHDYFEFFSNDTSLYPHMYARAYINFKNQEDIILFRDRFDGYVFLDNKGQEYPAIVEFAPFQKAAKKKTKKRDTKVGTIDDDPEDRKFLESYATDNEKMTSTPETLLEEIEAKNRELIAKKTTPLLSFLKNKQRMREEKREERRRREIERKRQREEERRKWKEEEKRKRKDIEKLKKIDRIPERDKLKDEPKIKVHRFLLQAVNQKNLLKKPEKGDEKELDKREKAKKLDKENLSDERASGQSCTLPKRSDSELKDEKPKRPEDESGRDYREREREYERDQERILRERERLKRQEEERRRQKERYEKEKTFKRKEEEMKKEKDTLRDKGKKAESTESIGSSEKTEKKEEVVKRDRIRNKDRPAMQLYQPGARSRNRLCPPDDSTKSGDSAAERKQESGISHRKEGGEE [chain 1 Y160D]

# Variants of: B1
# Assay: as above
# Remark: another data set of the same source
row,ratio to parent,Variant
1,1.1,chain 1 MKEEKEHRPKEKRVTLLTPAGATGSGGGTSGDSSKGEDKQDRNKEKKEALSKVVIRRLPPTLTKEQLQEHLQPMPEHDYFEFFSNDTSLYPHMYARAYINFKNQEDIILFRDRFDGYVFLDNKGQEYPAIVEFAPFQKAAKKKTKKRDTKVGTIDDDPEYRKFLESYAADNEKMTSTPETLLEEIEAKNRELIAKKTTPLLSFLKNKQRMREEKREERRRREIERKRQREEERRKWKEEEKRKRKDIEKLKKIDRIPERDKLKDEPKIKVHRFLLQAVNQKNLLKKPEKGDEKELDKREKAKKLDKENLSDERASGQSCTLPKRSDSELKDEKPKRPEDESGRDYREREREYERDQERILRERERLKRQEEERRRQKERYEKEKTFKRKEEEMKKEKDTLRDKGKKAESTESIGSSEKTEKKEEVVKRDRIRNKDRPAMQLYQPGARSRNRLCPPDDSTKSGDSAAERKQESGISHRKEGGEE [chain 1 T169A]
2,0.2,chain 1 MKEEKEHRPKEKRVTLLTPAGATGSGGGTSGDSSKGEDKQDRNKEKKEALSKVVIRRLPPTLTKEQLQEHLQPMPEHDYFEFFSNDTSLYPHMYARAYINFKNQEDIILFRDRFDGYVFLDNKGQEYPAIVEFAPFQKAAKKKTKKRDTKVGTIDDDPEYRKFLESYADDNEKMTSTPETLLEEIEAKNRELIAKKTTPLLSFLKNKQRMREEKREERRRREIERKRQREEERRKWKEEEKRKRKDIEKLKKIDRIPERDKLKDEPKIKVHRFLLQAVNQKNLLKKPEKGDEKELDKREKAKKLDKENLSDERASGQSCTLPKRSDSELKDEKPKRPEDESGRDYREREREYERDQERILRERERLKRQEEERRRQKERYEKEKTFKRKEEEMKKEKDTLRDKGKKAESTESIGSSEKTEKKEEVVKRDRIRNKDRPAMQLYQPGARSRNRLCPPDDSTKSGDSAAERKQESGISHRKEGGEE [chain 1 T169D]

# Variants of: B1
# Assay: as above
# Remark: another data set of the same source
row,ratio to parent,Variant
1,1.11,chain 1 MKEEKEHRPKEKRVTLLTPAGATGSGGGTSGDSSKGEDKQDRNKEKKEALSKVVIRRLPPTLTKEQLQEHLQPMPEHDYFEFFSNDTSLYPHMYARAYINFKNQEDIILFRDRFDGYVFLDNKGQEYPAIVEFAPFQKAAKKKTKKRDTKVGTIDDDPEYRKFLESYATDNEKMTSTPETLLEEIEAKNRELIAKKDTPLLSFLKNKQRMREEKREERRRREIERKRQREEERRKWKEEEKRKRKDIEKLKKIDRIPERDKLKDEPKIKVHRFLLQAVNQKNLLKKPEKGDEKELDKREKAKKLDKENLSDERASGQSCTLPKRSDSELKDEKPKRPEDESGRDYREREREYERDQERILRERERLKRQEEERRRQKERYEKEKTFKRKEEEMKKEKDTLRDKGKKAESTESIGSSEKTEKKEEVVKRDRIRNKDRPAMQLYQPGARSRNRLCPPDDSTKSGDSAAERKQESGISHRKEGGEE [chain 1 T197D]
2,1.07,chain 1 MKEEKEHRPKEKRVTLLTPAGATGSGGGTSGDSSKGEDKQDRNKEKKEALSKVVIRRLPPTLTKEQLQEHLQPMPEHDYFEFFSNDTSLYPHMYARAYINFKNQEDIILFRDRFDGYVFLDNKGQEYPAIVEFAPFQKAAKKKTKKRDTKVGTIDDDPEYRKFLESYATDNEKMTSTPETLLEEIEAKNRELIAKKTDPLLSFLKNKQRMREEKREERRRREIERKRQREEERRKWKEEEKRKRKDIEKLKKIDRIPERDKLKDEPKIKVHRFLLQAVNQKNLLKKPEKGDEKELDKREKAKKLDKENLSDERASGQSCTLPKRSDSELKDEKPKRPEDESGRDYREREREYERDQERILRERERLKRQEEERRRQKERYEKEKTFKRKEEEMKKEKDTLRDKGKKAESTESIGSSEKTEKKEEVVKRDRIRNKDRPAMQLYQPGARSRNRLCPPDDSTKSGDSAAERKQESGISHRKEGGEE [chain 1 T198D]
